Bridges are numbered along the chain shown (N, C = ends).

In general, Kd refers to a measure of binding affinity in units of concentration. The low end stands for higher affinity, the high end for lower affinity.

B1: Compound 4 ([Peptide 1]-DY-650 conjugate) (peptide)
peptide: Ac-AGSCYCSGPPRFECWCYETEGTGGGK-NH2
modifications: disulfide 6-14, 4-16; not fully specified (residue 26); also: DY-650 dye attached, site not given here
B2: Compound 3 ([Peptide 1]-DY-633 conjugate) (peptide)
peptide: Ac-AGSCYCSGPPRFECWCYETEGTGGGK-NH2
modifications: disulfide 6-14, 4-16; not fully specified (residue 26); also: DY-633 dye attached, site not given here
B3: Compound 5 ([Peptide 1]-DY-651 conjugate) (peptide)
peptide: Ac-AGSCYCSGPPRFECWCYETEGTGGGK-NH2
modifications: disulfide 6-14, 4-16; not fully specified (residue 26); also: DY-651 dye attached, site not given here
B4: Compound 2 ([Peptide 1]-DY-631 conjugate) (peptide)
peptide: Ac-AGSCYCSGPPRFECWCYETEGTGGGK-NH2
modifications: disulfide 6-14, 4-16; not fully specified (residue 26); also: DY-631 dye attached, site not given here
B5: Compound 6 ([Peptide 1]-DY-652 conjugate) (peptide)
peptide: Ac-AGSCYCSGPPRFECWCYETEGTGGGK-NH2
modifications: disulfide 6-14, 4-16; not fully specified (residue 26); also: DY-652 dye attached, site not given here
B6: Compound 1 ([Peptide 1]-DY-630 conjugate) (peptide)
peptide: Ac-AGSCYCSGPPRFECWCYETEGTGGGK-NH2
modifications: disulfide 6-14, 4-16; not fully specified (residue 26); also: DY-630 dye attached, site not given here
notes: Printed in three-letter code, turned into one-letter code here

The target in the first assay is T1, human serum albumin (human, UniProt P02768 25-609).
T1 construct: also called HSA; plasma protein (PPB)
T1 sequence (P02768 25-609 limits assumed): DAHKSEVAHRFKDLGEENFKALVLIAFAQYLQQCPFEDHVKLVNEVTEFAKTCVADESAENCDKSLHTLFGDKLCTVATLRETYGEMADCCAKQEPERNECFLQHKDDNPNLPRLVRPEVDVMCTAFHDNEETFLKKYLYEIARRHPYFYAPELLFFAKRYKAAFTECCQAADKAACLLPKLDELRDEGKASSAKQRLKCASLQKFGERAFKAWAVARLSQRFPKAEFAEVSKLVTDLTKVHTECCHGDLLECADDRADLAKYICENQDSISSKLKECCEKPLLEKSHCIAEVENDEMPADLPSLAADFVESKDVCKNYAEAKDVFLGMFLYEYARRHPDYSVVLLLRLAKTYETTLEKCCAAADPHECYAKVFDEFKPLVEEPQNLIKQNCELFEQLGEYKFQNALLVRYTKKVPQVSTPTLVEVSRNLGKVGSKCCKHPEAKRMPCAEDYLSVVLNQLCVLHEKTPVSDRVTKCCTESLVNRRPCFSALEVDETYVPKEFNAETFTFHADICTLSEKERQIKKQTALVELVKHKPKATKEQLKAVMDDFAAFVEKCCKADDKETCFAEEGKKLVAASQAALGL
In words: fluorescence polarisation, change of polarisation value with human serum albumin. For orientation: Polarisation of emitted light reports the rotation of a fluorescent probe.
Turning to B1, the PPB (% change in polarisation value) was 55%.
For B2, the “PPB (% change in polarisation value)” value is 27%.
The same measure, in the same setting: under B3 stands 49%; under B4, 33%.
The same measure, in the same setting: under B5 stands 46%; under B6, 36%.

The target of a further assay is T2, human c-Met/Fc chimera (R&D Systems) (human, UniProt P08581 25-932).
T2 construct: Bought from R&D Systems; Printed once as 'c-Met/Fe chimera' [sic]; also called human c-Met/Fe chimera; not shown: Fc part (and any linker or tag) of the bought chimera
T2 sequence (P08581 25-932 limits assumed, change not shown): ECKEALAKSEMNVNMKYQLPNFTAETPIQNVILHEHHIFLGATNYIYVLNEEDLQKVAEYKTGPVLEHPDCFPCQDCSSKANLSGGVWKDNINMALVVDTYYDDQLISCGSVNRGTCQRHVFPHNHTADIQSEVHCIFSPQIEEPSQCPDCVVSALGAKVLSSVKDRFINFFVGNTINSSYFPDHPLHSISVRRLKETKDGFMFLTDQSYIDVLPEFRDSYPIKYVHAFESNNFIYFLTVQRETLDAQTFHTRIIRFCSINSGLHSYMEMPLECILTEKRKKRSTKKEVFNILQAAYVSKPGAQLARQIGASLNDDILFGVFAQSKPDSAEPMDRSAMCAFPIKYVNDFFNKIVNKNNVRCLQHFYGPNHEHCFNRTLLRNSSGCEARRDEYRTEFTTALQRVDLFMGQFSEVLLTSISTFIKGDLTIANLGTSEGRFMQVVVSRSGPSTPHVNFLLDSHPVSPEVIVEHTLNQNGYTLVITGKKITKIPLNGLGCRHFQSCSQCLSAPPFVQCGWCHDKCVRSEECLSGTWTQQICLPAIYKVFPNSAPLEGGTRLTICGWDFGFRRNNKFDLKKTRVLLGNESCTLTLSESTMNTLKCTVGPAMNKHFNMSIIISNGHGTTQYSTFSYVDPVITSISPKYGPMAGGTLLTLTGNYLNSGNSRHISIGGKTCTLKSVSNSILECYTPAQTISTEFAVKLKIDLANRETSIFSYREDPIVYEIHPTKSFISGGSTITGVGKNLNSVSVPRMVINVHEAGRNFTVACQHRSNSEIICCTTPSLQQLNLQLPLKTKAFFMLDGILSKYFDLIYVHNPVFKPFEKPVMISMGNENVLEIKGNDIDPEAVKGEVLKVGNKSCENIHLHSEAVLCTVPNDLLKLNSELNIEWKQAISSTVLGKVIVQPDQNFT
In words: fluorescence polarisation (anisotropy), 5 nM dye-labelled peptide, c-Met/Fc 0-250 nM, one-site fit. As to the method:
The fluorescence anisotropy measurements were performed in 384-well microplates in a volume of 10 μL in binding buffer (PBS, 0.01% Tween-20, pH 7.5) using a Tecan Safire fluorescence polarisation plate reader (Tecan, US) at Ex 635/Em 678 nm. The to concentration of dye-labelled peptide was held constant (5 nM) and the concentration of the human c-Met/Fe chimera (R&D Systems) was varied from 0-250 nM. Binding mixtures were equilibrated in the microplate for 10 min at 30° C. The observed change in anisotropy was fit to the equation
B1: binding was characterised by a dissociation constant (Kd) of 3.2 nM.
The same measure, in the same setting: under B2 stands 0.5 nM; under B3, 2.2 nM.
Same read-out and setting: in the case of B4 it was 0.5 nM.
Still for that read-out and setting: in the case of B5 it was 0.9 nM; in that of B6, 2.2 nM.
